Reference: the supplement of paper PMC9170038

Tested on: MS2 coat protein
Assay: apparent KD of MS2 coat protein; designed switch direction (-1 OFF switch, 1 ON switch): -1; higher = weaker reporter binding
In short: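 An oligonucleotide input, 200 uM small-molecule ligand, or no input was present during titration of SNAP-549-labelled MS2 coat protein, which was doubled from 0.7 or 1.5 nM to 3 µM. Designed RNA switches had been transcribed on Illumina chips by stalled E. coli RNA polymerase. Apparent KD per design is the median over clusters of curves fitted to normalised cluster fluorescence.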

[1] = input ligand: microRNA oligo, concentration not stated
[2] = Eterna round: R95, input ligand: microRNA oligo, concentration not stated
[3] = Eterna round: R95, input ligand: FMN 200 uM
[4] = Eterna round: R95, input ligand: none

Sequence	apparent KD of MS2 coat protein (input ligand: FMN 200 uM)	apparent KD of MS2 coat protein (input ligand: none)	apparent KD of MS2 coat protein [1]	apparent KD of MS2 coat protein [2]	apparent KD of MS2 coat protein [3]	apparent KD of MS2 coat protein [4]
AAUUUACAUGAGGAUCACCCAUGUGAGGAUAUAUGUUUUAAUUUUUUUUUUUUUUUACAUAGAAGGCGCGUGAU [JR_Exc1_Sub046] (Eterna round: R97, puzzle: Exclusion 1)	0.0517 µM	0.0585 µM				
GGUAAGUGUGACUUGGGUGACAUGAGGAUCACCCAUGUCACAAGCUUGUUGCUCGCCUUGUAAUUAACCCAUGUCAC [LRO Sensor-off var1-28 mod of Stov1-13-A1 by Brourd] (Eterna round: R97, puzzle: Sensor, turn-off variant 1)	0.0173 µM	0.0186 µM				
UAGCAGAGAGGAUAUACAUUCAUCACCCGCGCAACAAGCGCACAUGAGGAUCACCCAUGUAGAAGGCUCGUGCC [EX2 C.20] (Eterna round: R97, puzzle: Exclusion 2)	0.0536 µM	0.0317 µM				
UAAACCAGAGGAUAUGCGAAUAAAUAAAACUUUUUUUUUUAACAUGAGGAUCACCCAUGUAGAAGGCUGCAAUU [Ex2 #32] (Eterna round: R97, puzzle: Exclusion 2)	0.0304 µM	0.03 µM				
AGUUAGAAAGGAUAUACAUGAGGAUCACCCAUGUAGGGCUGUUAGAGACCCGGUCUCUGUAGAAGGUUCGAACU [EX3 C.16] (Eterna round: R97, puzzle: Exclusion 3)	0.0308 µM	0.0289 µM				
UGAGUGCUGCGAGGAUAUACAUGAGGAUCACCCAUGUGGAUGUCUGAGGCAAAGCCUCAGACAAUGUAGAAGGCGCAGUACUCU [Mat - Exclusion NG 2 - Mod of JL - D55] (Eterna round: R96, puzzle: Exclusion NG 2)	0.0961 µM	0.0252 µM	0.0166 µM			
GUAGAGUAAGGAUAUCAAGAAUAGGAUAGAAUGGUUAGAAUUGAGAAGGUACAUGAGGAUCACCCAUGUAAUGU [Excluse me!!!! 4 - Jieux - Exclusion 4] (puzzle: Exclusion 4)				0.0241 µM		
UGUUGUCGCGUAGGAUAUGUAUGAGGAUCACCCAUUAAUAAAUUUUAACCACGAGGAUCACCCGUGUAGAAGGACGGGACAACA [pwkr exNG2 2xF5 1xFMN.16] (Eterna round: R96, puzzle: Exclusion NG 2)	0.0379 µM	0.0306 µM	0.0181 µM			
GUAUAACUACACGGGCUCAACAUGAGGAUCACCCAUGUCAUAUACGCAAGCUUUUUGCUUGUCUUACCUGUCCGUGA [Ariedbi] (puzzle: Sensor v3, turn-off variant 1)				0.0104 µM	0.0115 µM	0.0101 µM
GAGUAGUGAGGAUAUGCAAUGAUCAUCGUACGAUGAGGCUGACAUGAGGAUCACCCAUGUAGAAGGCGCUGAUC [EX2 #18] (Eterna round: R97, puzzle: Exclusion 2)	0.0573 µM	0.0752 µM				
GCAAUGAGUGUGAGGAUAUGCUGGUCCUUGGAUCAGCAGAAGGCACAUGAGGAUCACCCAUGUGAAAACAUUGC [Mat - Exclusion 4 - JL Mod - D63] (puzzle: Brourd's mod of Exclusion 4)				0.0174 µM	0.147 µM	0.0231 µM
UUAUAUAGUAUAGGAUAUUAGAGGAGAAUGGUGAUAGAGACAUGAGGAUCACCCAUGUGAGGAGAUAAGAAGGGUAAUAAUUAU [AK ExNG2-V2-3] (Eterna round: R96, puzzle: Exclusion NG 2)	0.326 µM	0.351 µM	0.176 µM			
CUUUCGUGAGGAUAUGUGGCUUCGAUCGUGAGAUCGAGGCAACAGAAGGCACAUGAGGAUCACCCAUGUUCCUC [salish99_ex4_r4_207] (Eterna round: R97, puzzle: Exclusion 4)	0.546 µM	0.0405 µM				
AAUCCACAUGAGGAUCACCCAUGUGAGGAUAUGAUACUAUGUACUUCGGUACAUAGUAUCAGAAGGCACAAAGG [Ex1-3: 52] (puzzle: Exclusion 1)				0.056 µM		
UACAGUCAUCCUUGUUGUUACAUGAGGAUCACCCAUGUUAGUAUAAUUAAGUUAUGUAAGUUUGUUGUUCGUUUUAU [JR_STOV1_v2_Sub076] (Eterna round: R97, puzzle: Sensor, turn-off variant 1)	0.0942 µM	0.101 µM				
ACAAGACAUGAGGAUCACCCAUGUGGUCGGAUGUCAAAGACCGAGGAUAUCAGCGACUGCGCCGCUGAGAAGGCGGAUGGUGCU [Telaed] (Eterna round: R96, puzzle: Exclusion NG 3)	1.26 µM	0.652 µM	0.476 µM			
AGUACUCACACGAAAGUGUUAGUACAAUAAGCUUGUGAAACAUGAGGAUCACCCAUGUCCUCAUAAGCUCGUCUUAU [salish99_TOv2_r3_018] (puzzle: Sensor v3, turn-off variant 2)				1.38 µM	0.0176 µM	0.0171 µM
AGAACUCUAGUAGGAUAUGUCGGAUAUGUUGUUGAGGUUCACCCAACGACGUCAAUGACAGAAGGACAGAAGGACUCCUGUUCA [pwkr exNG2 2xFMN 1xF5.8] (Eterna round: R96, puzzle: Exclusion NG 2)	1.02 µM	0.711 µM	3.67 µM			
GGGAAGGGAGGAUAUGAGGGAGAGAACAUGAGGAUCACCCAUGUGAGACCUCAGGAUCGAUCAGAAGGCCCGAUCC [AK-MS2ROC-r4-exclusion5-14] (Eterna round: R97, puzzle: Exclusion 5)	0.677 µM	0.383 µM				
UUCUGCACGCUGCGGUCCUACAUGAGGAUCACCCAUGUGGUCUGGUGGCGUGGGUCGCCGGACUUGGCUCGUCUUGA [salish99_S_TOV1_R5_044] (Eterna round: R97, puzzle: Sensor, turn-off variant 1)	0.0182 µM	0.0191 µM				
UUGAUGUCAUCAGGAUAUAGUAUUUAAGACAUAUCUUCUUUCAAACAUGAGGAUCACCCAUGUCGCUAGAAGGGAUGAAUGAUU [JR_ExcNG2_Sub085] (Eterna round: R96, puzzle: Exclusion NG 2)			0.0121 µM			
CAAUGACAUGAGGAUCACCCAUGUGAGGAUAUGGAGCGCGACCGCGCGGUCGCGUACACCAGAAGGCGCAGGAA [1st #69] (Eterna round: R97, puzzle: Exclusion 1)	0.0597 µM	0.0294 µM				
GUAGAGUGAGGAUAUACGAGAUCGAUAGAUCGGCGAUCCAUACAUGAGGAUCACCCAUGUAGAAGGCACUCUAC [Mat - Exclusion 2 - Eli Mod - D2] (Eterna round: R97, puzzle: Exclusion 2)	0.625 µM	0.0293 µM				
UAAUAACAAGCGAGAUCCUACAUGAGGAUCACCCAUGUGCUCGUCUUAUAAGGUACUGUGACGAUAGUCACGGUACC [Mat - Sensor, turn-off var - Eli Mod - D96] (Eterna round: R97, puzzle: Sensor, turn-off variant 1)	0.0178 µM	0.0182 µM				
ACAUUGAAUGUGAGGAUAUCGAUGUGAUGGGUUGUCGAGAAGGCACAUGAGGAUCACCCAUGUGGGAAACAGCA [JR_BMEx4_Sub031] (Eterna round: R97, puzzle: Brourd's mod of Exclusion 4)	0.127 µM	0.0446 µM				
